Test results: patent US10130693B2, “Peptides, combination of peptides and scaffolds for use in immunotherapeutic treatment of various cancers” (Immatics Biotechnologies GmbH, priority 2015, dated 2018)

Key:
[1] = target: HLA-A*02:01 (Homo sapiens, UniProt P04439, D140Y/D185E/D98H/E176V/E277Q/G131W/G231S/I119V/I121R/I166T/I218V/L300P/L318F/N151K/N90K/P208A/P217A/Q86G/Q94H/R138H/R169H/T345S); test: MHC binding assay, UV-ligand exchange with beta2m ELISA (exchange yield), HLA-A*02; settings: binding to HLA-A*02 ranged by peptide exchange yield
Excerpt: Candidate peptides for T cell based therapies according to the present invention were further tested for their MHC binding capacity (affinity). The individual peptide-MHC complexes were produced by UV-ligand exchange, where a UV-sensitive peptide is cleaved upon UV-irradiation, and exchanged with the peptide of interest as analyzed. Only peptide candidates that can effectively bind and stabilize the peptide-receptive MHC molecules prevent dissociation of the MHC complexes. To determine the yield of the exchange reaction, an ELISA was performed based on the detection of the light chain (β2m) of stabilized MHC complexes. The assay was performed as generally described in Rodenko et al. (Rodenko et al., 2006).
96 well MAXISorp plates (NUNC) were coated over night with 2 ug/ml streptavidin in PBS at room temperature, washed 4× and blocked for 1 h at 37° C. in 2% BSA containing blocking buffer. […] Peptide-MHC monomers of the UV-exchange reaction were diluted 100 fold in blocking buffer. Samples were incubated for 1 h at 37° C., washed four times, incubated with 2 ug/ml HRP conjugated anti-β2m for 1h at 37° C., washed again and detected with TMB solution that is stopped with […]. Absorption was measured at 450 nm. Candidate peptides that show a high exchange yield (preferably higher than 50%, most preferred higher than 75%) are generally preferred for a generation and production of antibodies or fragments thereof, and/or T cell receptors or fragments thereof, as they show sufficient avidity to the MHC molecules and prevent dissociation of the MHC complexes.

[2] = system: CD8+ T cells; test: In vitro immunogenicity: T-cell priming with aAPCs loaded with HLA-A*02 peptide/MHC and anti-CD28, multimer staining; format: cell-based, human; settings: HLA-A*02 peptides
Excerpt: In order to obtain information regarding the immunogenicity of the TUMAPs of the present invention, the inventors performed investigations using an in vitro T-cell priming assay based on repeated stimulations of CD8+ T cells with artificial antigen presenting cells (aAPCs) loaded with peptide/MHC complexes and anti-CD28 antibody.
In order to perform in vitro stimulations by artificial antigen presenting cells loaded with peptide-MHC complex (pMHC) and anti-CD28 antibody, the inventors first isolated CD8+ T cells from fresh HLA-A*02 leukapheresis products via positive selection using CD8 microbeads (Miltenyi Biotec, Bergisch-Gladbach, Germany) of healthy donors obtained from the University clinics Mannheim, Germany, after informed consent.
PBMCs and isolated CD8+ lymphocytes were incubated in T-cell medium (TCM) until use consisting of RPMI-Glutamax (Invitrogen, Karlsruhe, Germany) supplemented with 10% heat inactivated human AB serum (PAN-Biotech, Aidenbach, Germany), 100 U/ml Penicillin/100 μg/ml Streptomycin (Cambrex, Cologne, Germany), 1 mM sodium pyruvate (CC Pro, Oberdorla, Germany), 20 μg/ml Gentamycin (Cambrex). 2.5 ng/ml IL-7 (PromoCell, Heidelberg, Germany) and 10 U/ml IL-2 (Novartis Pharma, Nürnberg, Germany) were also added to the TCM at this step.
Generation of pMHC/anti-CD28 coated beads, T-cell stimulations and readout was performed in a highly defined in vitro system using four different pMHC molecules per stimulation condition and 8 different pMHC molecules per readout condition.
The purified co-stimulatory mouse IgG2a anti human CD28 Ab 9.3 (Jung et al., 1987) was chemically biotinylated using Sulfo-N-hydroxysuccinimidobiotin as recommended by the manufacturer (Perbio, Bonn, Germany). Beads used were 5.6 μm diameter streptavidin coated polystyrene particles (Bangs Laboratories, Illinois, USA).
pMHC used for positive and negative control stimulations were A*0201/MLA-001 (peptide […] (SEQ ID NO. 418) from modified Melan-A/MART-1) and A*0201/DDX5-001 ([…] from DDX5, SEQ ID NO. 419), respectively.
800.000 beads/200 μl were coated in 96-well plates in the presence of 4×12.5 ng different biotin-pMHC, washed and 600 ng biotin anti-CD28 were added subsequently in a volume of 200 μl. Stimulations were initiated in 96-well plates by co-incubating 1×10^6 CD8+ T cells with 2×10^5 washed coated beads in 200 μl TCM supplemented with 5 ng/ml IL-12 (PromoCell) for 3 days at 37° C. Half of the medium was then exchanged by fresh TCM supplemented with 80 U/ml IL-2 and incubating was continued for 4 days at 37° C. This stimulation cycle was performed for a total of three times. For the pMHC multimer readout using 8 different pMHC molecules per condition, a two-dimensional combinatorial coding approach was used as previously described (Andersen et al., 2012) with minor modifications encompassing coupling to 5 different fluorochromes. Finally, multimeric analyses were performed by staining the cells with Live/dead near IR dye (Invitrogen, Karlsruhe, Germany), CD8-FITC antibody clone SK1 (BD, Heidelberg, Germany) and fluorescent pMHC multimers. For analysis, a BD LSRII SORP cytometer equipped with appropriate lasers and filters was used. Peptide specific cells were calculated as percentage of total CD8+ cells. Evaluation of multimeric analysis was done using the FlowJo software (Tree Star, Oregon, USA). In vitro priming of specific multimer+CD8+ lymphocytes was detected by comparing to negative control stimulations.

Peptide exchange (MHC class I binding score) [1]	Substance	in vitro immunogenicity, Wells positive [%] [2]
+++ (50%-75% = +++)	43 (LLWAGPVTA; listed as Homo sapiens) [compound 43]	++++ (>=70% = ++++)
+++ (50%-75% = +++)	8 (KLGPFLLNA; listed as Homo sapiens) [compound 8]	+++ (50%-69% = +++)
+++ (50%-75% = +++)	7 (AAAAKVPEV; listed as Homo sapiens) [compound 7]	+ (<20% = +)
+++ (50%-75% = +++)	17 (ILHEHHIFL; listed as Homo sapiens) [compound 17]	+ (<20% = +)
+++ (50%-75% = +++)	331 (AIWKELISL; listed as Homo sapiens) [compound 331]	++ (20%-49% = ++)
+++ (50%-75% = +++)	2 (ALYGKLLKL; listed as Homo sapiens) [compound 2]	++++ (>=70% = ++++)
+++ (50%-75% = +++)	322 (ALVSGGVAQA; listed as Homo sapiens) [compound 322]	+ (<20% = +)
++ (20%-49% = ++)	9 (FLGDYVENL; listed as Homo sapiens) [compound 9]	+ (<20% = +)
